The target of the experiment is biotinylated FYCO1 peptide (human). Kind of experiment: BLI.

As for “GABARAP (from UniProt O95166 1-117) (natural protein)”, the Kd was found to be 1.4 µM.

A word on the Kd: it is a measure of binding affinity in units of concentration. Higher therefore signals a looser complex.

(Values after paper PMC7872222.)
